Experimental findings from US20240270821A1, “GIP/GLP1/GCG TRI-RECEPTOR AGONISTS AND USES THEREOF” (priority 2023, published 2024) are described below.

Assay in all cases: cell-based or functional assay
The target of one assay is hGLP-1R (Homo sapiens, UniProt P43220).
In assay [1] the target is T1, human GIP receptor (human) (UniProt P48546).
T1 sequence (looked up): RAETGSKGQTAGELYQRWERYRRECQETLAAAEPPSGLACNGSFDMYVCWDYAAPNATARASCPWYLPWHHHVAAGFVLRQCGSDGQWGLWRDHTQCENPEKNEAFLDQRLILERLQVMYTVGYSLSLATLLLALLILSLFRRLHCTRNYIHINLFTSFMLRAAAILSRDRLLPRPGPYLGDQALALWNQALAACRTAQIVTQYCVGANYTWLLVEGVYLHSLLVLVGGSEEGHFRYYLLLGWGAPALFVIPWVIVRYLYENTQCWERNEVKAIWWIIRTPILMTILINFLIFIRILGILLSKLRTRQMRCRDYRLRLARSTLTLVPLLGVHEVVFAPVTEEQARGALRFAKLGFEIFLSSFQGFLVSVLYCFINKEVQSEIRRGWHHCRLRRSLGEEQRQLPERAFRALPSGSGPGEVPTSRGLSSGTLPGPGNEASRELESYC

Assay [2] addresses human glucagon receptor (human) (UniProt P47871).

Sequence of hGLP-1R (P43220 24-463): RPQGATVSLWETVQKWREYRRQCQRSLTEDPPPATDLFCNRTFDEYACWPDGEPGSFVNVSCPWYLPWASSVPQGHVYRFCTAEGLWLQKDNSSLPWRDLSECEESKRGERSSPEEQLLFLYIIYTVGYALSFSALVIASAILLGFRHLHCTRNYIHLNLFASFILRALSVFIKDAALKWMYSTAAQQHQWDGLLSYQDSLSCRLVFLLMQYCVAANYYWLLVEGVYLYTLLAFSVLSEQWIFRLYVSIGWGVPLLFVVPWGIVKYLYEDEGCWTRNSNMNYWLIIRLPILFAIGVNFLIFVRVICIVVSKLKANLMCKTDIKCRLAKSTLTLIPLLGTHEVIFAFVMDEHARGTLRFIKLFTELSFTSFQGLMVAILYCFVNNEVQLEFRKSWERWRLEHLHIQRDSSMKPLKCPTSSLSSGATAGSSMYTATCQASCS
Sequence of human glucagon receptor (human) (P47871 26-477): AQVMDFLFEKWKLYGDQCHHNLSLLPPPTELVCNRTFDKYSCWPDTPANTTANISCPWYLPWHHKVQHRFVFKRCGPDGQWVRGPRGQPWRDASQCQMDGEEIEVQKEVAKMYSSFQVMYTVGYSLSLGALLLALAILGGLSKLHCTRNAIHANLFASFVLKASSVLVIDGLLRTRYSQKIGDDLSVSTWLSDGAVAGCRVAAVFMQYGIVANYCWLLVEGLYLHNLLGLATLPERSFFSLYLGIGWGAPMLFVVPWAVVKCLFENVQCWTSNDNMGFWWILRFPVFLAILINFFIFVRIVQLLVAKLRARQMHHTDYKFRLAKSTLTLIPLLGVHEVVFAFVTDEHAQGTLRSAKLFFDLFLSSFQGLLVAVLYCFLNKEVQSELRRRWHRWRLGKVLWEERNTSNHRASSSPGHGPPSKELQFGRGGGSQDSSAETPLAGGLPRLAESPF

B1: Example 1060 (peptide)
chain: YXQGTFTSDXSXXLDKKAQXAFIEYLIAGGPSSGAPPPSGSEE
modifications: Aib, 4Pal, Orn, αMeL, Me4Pal; acylated Lys; C-terminal amide; synthetic construct; SITE 2: note = 2-Aminoisobutyric Acid; SITE 10: note = 3-(4-Pyridyl)-L-alanine; SITE 12: note = L-ornithine; SITE 13: note = alpha-methyl-leucine; SITE 17: note = Lysine is chemically modified through conjugation of the epsilon-amino group of the Lysine side chain with (Glu)-(ga)
As to B1, the Relative cAMP EC50 was determined as 2.85 nM with hGLP-1R, 0.223 nM in assay [1] and 9.08 nM in assay [2]. Further, the cAMP Rel EC50 (1% HSA) in assay [1] turned out to be 44.7 nM; in assay [2], 4900 nM.

B2: Example 1049 (peptide)
chain: YXQGTFTSDFSXXLDXKAQXAFIEXLLEGGPSSGAPPPGGSEE
modifications: Aib, Orn, αMeL, αMeY; acylated Lys; C-terminal amide; synthetic construct; SITE 2: note = 2-Aminoisobutyric Acid; SITE 12: note = L-ornithine; SITE 13: note = alpha-methyl-leucine; SITE 16: note = L-ornithine; SITE 17: note = Lysine is chemically modified through conjugation of the epsilon-amino group of the Lysine side chain with (gamma-Glu)2-CO-(CH2)
As to B2, the figures for the Relative cAMP EC50 (with hGLP-1R; in assay [1]; in assay [2]) were 2.23 nM, 0.24 nM and 6.33 nM, respectively. Also, the cAMP Rel EC50 (1% HSA) in the assay with hGLP-1R was 780 nM; in assay [1], 56.2 nM; in assay [2], 1280 nM.

B3: Example 1066 (peptide)
chain: YXQGTFTSDXSXXLDXKAQXAFIEXLLEGGPSSGAPPPSGSEE
modifications: non-natural residues, Glu-γGlu-C18 diacid acylation, C-terminal amide; synthetic construct; SITE 2: note = 2-Aminoisobutyric Acid; SITE 10: note = 3-(4-Pyridyl)-L-alanine; SITE 12: note = L-ornithine; SITE 13: note = alpha-methyl-leucine; SITE 16: note = L-ornithine; SITE 17: note = Lysine is chemically modified through conjugation of the epsilon-amino group of the Lys
As to B3, the Relative cAMP EC50 came out at 9.8 nM with hGLP-1R, 0.446 nM in assay [1] and 25.4 nM in assay [2]. Also, the cAMP Rel EC50 (1% HSA) turned out to be 1850 nM with hGLP-1R, 69.9 nM in assay [1] and 4260 nM in assay [2].

B4: Example 1062 (peptide)
chain: YXQGTFTSDXSXXLDXKAQXAFIEYLIAGGPSSGAPPPSGSEE
modifications: C-terminal amide; lysine acylated with (Glu)2-γ-Glu-C18 diacid; synthetic construct; SITE 2: note = 2-Aminoisobutyric Acid; SITE 10: note = 3-(4-Pyridyl)-L-alanine; SITE 12: note = L-ornithine; SITE 13: note = alpha-methyl-leucine; SITE 16: note = L-ornithine; SITE 17: note = Lysine is chemically modified through conjugation of the epsilon-amino group of the Lys
For the molecule B4, the Relative cAMP EC50 with hGLP-1R amounted to 7.75 nM; in assay [1] it was 0.726 nM; in assay [2], 8.77 nM. The figures for the cAMP Rel EC50 (1% HSA) in assay [1] and in assay [2] were 67.5 nM and 2380 nM, respectively.

B5: Example 1059 (peptide)
chain: YXQGTFTSDXSXXLDXKAQXAFIEYLIAGGPSSGAPPPSGSEE
modifications: acylated Lys, C-terminal amide, non-natural residues; synthetic construct; SITE 2: note = 2-Aminoisobutyric Acid; SITE 10: note = 3-(4-Pyridyl)-L-alanine; SITE 12: note = L-ornithine; SITE 13: note = alpha-methyl-leucine; SITE 16: note = L-ornithine; SITE 17: note = Lysine is chemically modified through conjugation of the epsilon-amino group of the Lys
As for B5, the Relative cAMP EC50 with hGLP-1R came to 4.61 nM; in assay [1], 0.468 nM; in assay [2], 7.52 nM. Moreover, the figures for the cAMP Rel EC50 (1% HSA) in assay [1] and in assay [2] were 48.9 nM and 748 nM, respectively.

B6: Example 1056 (peptide)
chain: YXQGTFTSDXSQXLDXKAQXAFIEYLLAGGPSSGAPPPSGSEE
modifications: non-natural residues; lipidated Lys; C-terminal amide; synthetic construct; SITE 2: note = 2-Aminoisobutyric Acid; SITE 10: note = 3-(4-Pyridyl)-L-alanine; SITE 13: note = alpha-methyl-leucine; SITE 16: note = L-ornithine; SITE 17: note = Lysine is chemically modified through conjugation of the epsilon-amino group of the Lysine side chain with (gamma-Gl)
Turning to B6, the Relative cAMP EC50 in the assay with hGLP-1R was found to be 4.25 nM; in assay [1], 0.0929 nM; in assay [2], 3.98 nM. Also, the cAMP Rel EC50 (1% HSA) in assay [1] came out at 29.6 nM; in assay [2], 1650 nM.

B7: Example 1044 (peptide)
chain: YXQGTFTSDXSQXLDXKAQXAFIEXLIEGGPSSGAPPPSGSEE
modifications: non-natural residues, (γGlu)2-C18 diacid lysine acylation, C-terminal amide; synthetic construct; SITE 2: note = 2-Aminoisobutyric Acid; SITE 10: note = 3-(4-Pyridyl)-L-alanine; SITE 13: note = alpha-methyl-leucine; SITE 16: note = L-ornithine; SITE 17: note = Lysine is chemically modified through conjugation of the epsilon-amino group of the Lysine side chain with (gamma-Gl)
For the molecule B7, the results for the cAMP Rel EC50, nM (1% HSA) (with hGLP-1R; in assay [1]; in assay [2]) were 1110 nM, 88.7 nM and 2410 nM, respectively.

B8: Example 1046 (peptide)
chain: YXQGTFTSDXSQXLDXKAQXQFIEXLIEGGPSSGAPPPSGSEE
modifications: non-natural residues, C-terminal amide, acylated Lys with fatty diacid; synthetic construct; SITE 2: note = 2-Aminoisobutyric Acid; SITE 10: note = 3-(4-Pyridyl)-L-alanine; SITE 13: note = alpha-methyl-leucine; SITE 16: note = L-ornithine; SITE 17: note = Lysine is chemically modified through conjugation of the epsilon-amino group of the Lysine side chain with (gamma-Gl)
Regarding B8, the figures for the cAMP Rel EC50, nM (1% HSA) (in the assay with hGLP-1R; in assay [1]; in assay [2]) were 528 nM, 85 nM and 1680 nM, respectively.

B9: Example 1058 (peptide)
chain: YXQGTFTSDXSQXLDXKAQXAFIEXLLEGGPSSGAPPPSGSEE
modifications: non-natural residues; lysine acylated γGlu-C18 diacid; C-terminal amide; synthetic construct; SITE 2: note = 2-Aminoisobutyric Acid; SITE 10: note = 3-(4-Pyridyl)-L-alanine; SITE 13: note = alpha-methyl-leucine; SITE 16: note = L-ornithine; SITE 17: note = Lysine is chemically modified through conjugation of the epsilon-amino group of the Lysine side chain with D-Glutami
As for B9, the results for the Relative cAMP EC50 (with hGLP-1R; in assay [1]; in assay [2]) were 4.48 nM, 0.139 nM and 5.8 nM, respectively. Also, the results for the cAMP Rel EC50 (1% HSA) in assay [1] and in assay [2] were 45.6 nM and 1450 nM, respectively.

B10: Example 1057 (peptide)
chain: YXQGTFTSDXSQXLDXKAQXAFIEYLLAGGPSSGAPPPSGSEE
modifications: non-natural residues, lipidated Lys, C-terminal amide; synthetic construct; SITE 2: note = 2-Aminoisobutyric Acid; SITE 10: note = 3-(4-Pyridyl)-L-alanine; SITE 13: note = alpha-methyl-leucine; SITE 16: note = L-ornithine; SITE 17: note = Lysine is chemically modified through conjugation of the epsilon-amino group of the Lysine side chain with (Glu)-(ga)
Regarding B10, the Relative cAMP EC50 in the assay with hGLP-1R came to 5.16 nM; in assay [1], 0.128 nM; in assay [2], 5.29 nM. The cAMP Rel EC50 (1% HSA) in assay [1] is 25.9 nM; in assay [2] it was 2780 nM.

B11: Example 1065 (peptide)
chain: YXQGTFTSDXSXXLDXKAQXAFIEXLLEGGPSSGAPPPSGSEE
modifications: Aib, 4Pal, Orn, αMeL, αMeY; lipidated Lys; C-terminal amide; synthetic construct; SITE 2: note = 2-Aminoisobutyric Acid; SITE 10: note = 3-(4-Pyridyl)-L-alanine; SITE 12: note = L-ornithine; SITE 13: note = alpha-methyl-leucine; SITE 16: note = L-ornithine; SITE 17: note = Lysine is chemically modified through conjugation of the epsilon-amino group of the Lys
As to B11, the values for the Relative cAMP EC50 (with hGLP-1R; in assay [1]; in assay [2]) were 11.6 nM, 0.293 nM and 19.7 nM, respectively. For the same molecule, the cAMP Rel EC50 (1% HSA) in the assay with hGLP-1R stood at 2290 nM; in assay [1], 39.1 nM; in assay [2], 3080 nM.

B12: Example 1063 (peptide)
chain: YXQGTFTSDXSXXLDXKAQXAFIEYLIAGGPSSGAPPPSGSEE
modifications: Lys acylated γGlu-C18 diacid; non-natural residues; C-amide; synthetic construct; SITE 2: note = 2-Aminoisobutyric Acid; SITE 10: note = 3-(4-Pyridyl)-L-alanine; SITE 12: note = L-ornithine; SITE 13: note = alpha-methyl-leucine; SITE 16: note = L-ornithine; SITE 17: note = Lysine is chemically modified through conjugation of the epsilon-amino group of the Lys
In the case of B12, the values for the Relative cAMP EC50 (with hGLP-1R; in assay [1]; in assay [2]) were 6.96 nM, 0.318 nM and 10.6 nM, respectively. The cAMP Rel EC50 (1% HSA) in the assay with hGLP-1R came to 626 nM; in assay [1], 26.6 nM; in assay [2] it was 2290 nM.
